Results as given in article PMC6555819, “Comprehensive study of nuclear receptor DNA binding provides a revised framework for understanding receptor specificity”.

Experiments:
THRa:RXRa = THRa:RXRa (Homo sapiens, UniProt P10827;P19793 full;full); assay: no ligand; PBM; 90 nM : 90 nM RXRa; PBS pH 7.4, 2% milk, 0.02% Triton X-100, 1 mM DTT, BSA, 0.4 mg/ml salmon testes DNA; details: tags: His kept;His cleaved; copies: 1;1; label: surface-attached array probe
FXR:RXRa = FXR:RXRa (Homo sapiens, UniProt Q96RI1;P19793 full;full); assay: no ligand; PBM; 270 nM : 90 nM RXRa; PBS pH 7.4, 2% milk, 0.02% Triton X-100, 1 mM DTT, BSA, 0.4 mg/ml salmon testes DNA; details: tags: His kept;His cleaved; copies: 1;1; label: surface-attached array probe
Chain of FXR:RXRa (Q96RI1 whole entry, chain 1 of 2): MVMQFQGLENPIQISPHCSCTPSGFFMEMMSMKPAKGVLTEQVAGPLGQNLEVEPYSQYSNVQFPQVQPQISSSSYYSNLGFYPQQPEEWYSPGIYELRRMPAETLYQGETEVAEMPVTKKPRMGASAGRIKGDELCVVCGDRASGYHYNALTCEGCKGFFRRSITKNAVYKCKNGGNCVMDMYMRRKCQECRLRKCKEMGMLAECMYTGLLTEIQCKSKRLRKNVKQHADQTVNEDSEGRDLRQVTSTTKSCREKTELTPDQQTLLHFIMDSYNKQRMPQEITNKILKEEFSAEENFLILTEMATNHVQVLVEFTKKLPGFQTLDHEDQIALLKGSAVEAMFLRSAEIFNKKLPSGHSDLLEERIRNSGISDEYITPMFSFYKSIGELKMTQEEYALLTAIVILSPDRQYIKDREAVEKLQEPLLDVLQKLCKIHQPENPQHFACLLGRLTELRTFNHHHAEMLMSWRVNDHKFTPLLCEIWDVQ
Chain of FXR:RXRa (P19793 whole entry, chain 2 of 2): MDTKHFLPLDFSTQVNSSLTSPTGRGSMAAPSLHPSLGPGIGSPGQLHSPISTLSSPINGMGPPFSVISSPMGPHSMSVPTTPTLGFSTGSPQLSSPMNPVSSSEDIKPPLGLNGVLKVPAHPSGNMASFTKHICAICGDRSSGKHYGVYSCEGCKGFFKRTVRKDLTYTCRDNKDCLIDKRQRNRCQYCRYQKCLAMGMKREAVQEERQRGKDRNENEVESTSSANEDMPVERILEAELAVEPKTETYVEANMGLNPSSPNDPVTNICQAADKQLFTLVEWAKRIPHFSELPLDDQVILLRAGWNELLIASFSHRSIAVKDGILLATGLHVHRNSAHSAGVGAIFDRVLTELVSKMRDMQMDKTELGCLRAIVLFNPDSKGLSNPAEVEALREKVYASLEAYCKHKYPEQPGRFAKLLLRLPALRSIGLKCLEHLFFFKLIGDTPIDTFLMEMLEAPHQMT
Procedure, shortened: (§1)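 The probes on custom Agilent 4×180K protein-binding microarrays were double-stranded, with 34-nt variable regions bearing direct-repeat seeds, single-nucleotide variants, half-site ablations and random human genomic background sequences. Incubation lasted 1 h with ligand-free nuclear receptor dimers in PBS pH 7.4, 2% milk, 0.02% Triton X-100, 1 mM DTT, 0.2 mg/mL BSA and 0.4 mg/ml salmon testes DNA. Antibodies against each partner (one per run) detected bound dimers, and fluorescence scans were regression-normalized. Binding z-scores take the random background probes as reference.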

RARb:RXRa = RARb:RXRa (Homo sapiens, UniProt P10826;P19793 full;full); assay: as above; details: tags: His kept;His cleaved; copies: 1;1; label: surface-attached array probe
Chain of RARb:RXRa (P10826 whole entry, chain 1 of 2): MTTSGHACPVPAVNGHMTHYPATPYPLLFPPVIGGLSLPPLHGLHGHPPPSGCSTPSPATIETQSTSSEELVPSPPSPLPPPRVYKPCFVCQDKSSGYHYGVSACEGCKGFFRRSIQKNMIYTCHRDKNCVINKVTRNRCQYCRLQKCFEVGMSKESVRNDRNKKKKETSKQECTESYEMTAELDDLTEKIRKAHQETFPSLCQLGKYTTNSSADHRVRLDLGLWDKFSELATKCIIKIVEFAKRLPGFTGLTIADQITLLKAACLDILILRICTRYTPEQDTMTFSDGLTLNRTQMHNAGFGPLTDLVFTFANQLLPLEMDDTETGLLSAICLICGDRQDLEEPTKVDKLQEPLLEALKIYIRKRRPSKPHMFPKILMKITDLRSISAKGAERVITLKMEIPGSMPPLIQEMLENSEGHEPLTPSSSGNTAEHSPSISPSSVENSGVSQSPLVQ
Chain of RARb:RXRa (P19793 whole entry, chain 2 of 2): as the sequence (P19793 whole entry, chain 2 of 2) above
Procedure, shortened: as §1

PPARa:RXRa = PPARa:RXRa (Homo sapiens, UniProt Q07869;P19793 full;full); assay: as above; details: tags: GST kept;His cleaved; copies: 1;1; label: surface-attached array probe
Chain of PPARa:RXRa (Q07869 whole entry, chain 1 of 2): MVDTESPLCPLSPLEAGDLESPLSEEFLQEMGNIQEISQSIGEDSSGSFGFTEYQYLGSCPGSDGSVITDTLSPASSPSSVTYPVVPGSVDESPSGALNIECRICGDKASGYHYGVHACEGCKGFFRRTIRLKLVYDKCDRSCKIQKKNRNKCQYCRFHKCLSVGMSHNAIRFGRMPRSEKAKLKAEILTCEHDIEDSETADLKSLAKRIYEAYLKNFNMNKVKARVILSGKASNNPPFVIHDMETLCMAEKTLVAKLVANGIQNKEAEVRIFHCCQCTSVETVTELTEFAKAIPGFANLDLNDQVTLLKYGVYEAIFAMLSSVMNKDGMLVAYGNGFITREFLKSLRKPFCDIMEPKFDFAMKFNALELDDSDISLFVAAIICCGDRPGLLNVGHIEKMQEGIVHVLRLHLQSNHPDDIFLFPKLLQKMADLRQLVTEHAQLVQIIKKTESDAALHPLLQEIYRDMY
Chain of PPARa:RXRa (P19793 whole entry, chain 2 of 2): as the sequence (P19793 whole entry, chain 2 of 2) above
Procedure, shortened: as §1

RARg:RXRa = RARg:RXRa (Homo sapiens, UniProt P13631;P19793 full;full); assay: as above; details: tags: His kept;His cleaved; copies: 1;1; label: surface-attached array probe
Chain of RARg:RXRa (P13631 whole entry, chain 1 of 2): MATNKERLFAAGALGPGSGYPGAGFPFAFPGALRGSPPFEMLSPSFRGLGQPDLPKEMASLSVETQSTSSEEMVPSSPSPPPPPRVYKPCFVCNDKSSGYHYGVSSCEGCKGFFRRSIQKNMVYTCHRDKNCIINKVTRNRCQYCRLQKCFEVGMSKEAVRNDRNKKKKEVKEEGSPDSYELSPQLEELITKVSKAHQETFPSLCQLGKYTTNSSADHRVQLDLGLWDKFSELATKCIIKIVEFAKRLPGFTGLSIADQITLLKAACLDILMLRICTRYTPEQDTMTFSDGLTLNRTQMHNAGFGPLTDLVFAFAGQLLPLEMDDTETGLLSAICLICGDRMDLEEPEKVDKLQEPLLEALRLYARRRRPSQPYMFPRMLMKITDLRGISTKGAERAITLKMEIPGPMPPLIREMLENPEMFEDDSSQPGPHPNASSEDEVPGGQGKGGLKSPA
Chain of RARg:RXRa (P19793 whole entry, chain 2 of 2): as the sequence (P19793 whole entry, chain 2 of 2) above
Procedure, shortened: as §1

Chain of THRa:RXRa (P10827 other isoform, or with tags, fused parts or gaps, chain 1 of 2): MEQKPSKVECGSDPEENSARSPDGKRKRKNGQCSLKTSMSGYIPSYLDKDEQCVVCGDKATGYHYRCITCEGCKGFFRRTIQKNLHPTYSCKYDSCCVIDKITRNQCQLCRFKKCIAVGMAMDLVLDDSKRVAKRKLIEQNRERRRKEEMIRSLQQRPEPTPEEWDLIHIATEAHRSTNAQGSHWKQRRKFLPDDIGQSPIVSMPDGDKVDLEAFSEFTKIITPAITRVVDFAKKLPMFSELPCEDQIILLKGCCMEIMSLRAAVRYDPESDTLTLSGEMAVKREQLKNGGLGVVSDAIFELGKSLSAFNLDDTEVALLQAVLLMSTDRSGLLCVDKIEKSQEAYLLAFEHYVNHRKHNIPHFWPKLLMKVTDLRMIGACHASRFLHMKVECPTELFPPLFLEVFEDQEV
Chain of THRa:RXRa (P19793 whole entry, chain 2 of 2): as the sequence (P19793 whole entry, chain 2 of 2) above

Binder	binding signal (THRa:RXRa)	binding signal (RARb:RXRa)	also measured
NRC3_random_hg19_228_o1 (dsDNA) DNA 1: GCCACCGTGTTAGCCAGGATGGTCTCGATCTCCTGAGCGATTGACAGCGTAGAATGAAGG DNA 2: CCTTCATTCTACGCTGTCAATCGCTCAGGAGATCGAGACCATCCTGGCTAACACGGTGGC	-1.6 PBM z-score against 500 random probes	–	binding signal (FXR:RXRa): -0.45 PBM z-score against 500 random probes
NRC3_wobSeed97_DR4_A6C_o1 (dsDNA) DNA 1: GCCAACCTAGGTCACGAAAGGTCAAAGTCGAATGACGCGATTGACAGCGTAGAATGAAGG DNA 2: CCTTCATTCTACGCTGTCAATCGCGTCATTCGACTTTGACCTTTCGTGACCTAGGTTGGC	5.6 PBM z-score against 500 random probes	6.29 PBM z-score against 500 random probes	–
NRC3_wobSeed106_DR4_G14A_o1 (dsDNA) DNA 1: GCCTCGAAAGGTCAGTTGAGGTGAGTATACGGATAAGCGATTGACAGCGTAGAATGAAGG DNA 2: CCTTCATTCTACGCTGTCAATCGCTTATCCGTATACTCACCTCAACTGACCTTTCGAGGC	5.33 PBM z-score against 500 random probes	5.79 PBM z-score against 500 random probes	–
NRC3_wobSeed121_DR5_G18T_o1 (dsDNA) DNA 1: GCCAAACTAGGTCACCGTAAGGTCAAAGTCCGCATGGCGATTGACAGCGTAGAATGAAGG DNA 2: CCTTCATTCTACGCTGTCAATCGCCATGCGGACTTTGACCTTACGGTGACCTAGTTTGGC	5.33 PBM z-score against 500 random probes	–	binding signal (PPARa:RXRa): 6.59 PBM z-score against 500 random probes
NRC3_wobSeed37_DR1_T23G_o1 (dsDNA) DNA 1: GCCGTCCAAGGTCAAAGGTCAGGGAAGAGATGACGGGCGATTGACAGCGTAGAATGAAGG DNA 2: CCTTCATTCTACGCTGTCAATCGCCCGTCATCTCTTCCCTGACCTTTGACCTTGGACGGC	5.23 PBM z-score against 500 random probes	6.26 PBM z-score against 500 random probes	binding signal (PPARa:RXRa): 7.45 PBM z-score against 500 random probes
NRC3_wobSeed25_DR1_T25C_o1 (dsDNA) DNA 1: GCCAAACTAGGTCAAAGGTCAAAGCCGAGCCAACCAGCGATTGACAGCGTAGAATGAAGG DNA 2: CCTTCATTCTACGCTGTCAATCGCTGGTTGGCTCGGCTTTGACCTTTGACCTAGTTTGGC	5.19 PBM z-score against 500 random probes	–	binding signal (PPARa:RXRa): 8.1 PBM z-score against 500 random probes
NRC3_wobSeed25_DR1_C26A_o1 (dsDNA) DNA 1: GCCAAACTAGGTCAAAGGTCAAAGTAGAGCCAACCAGCGATTGACAGCGTAGAATGAAGG DNA 2: CCTTCATTCTACGCTGTCAATCGCTGGTTGGCTCTACTTTGACCTTTGACCTAGTTTGGC	5.12 PBM z-score against 500 random probes	6.19 PBM z-score against 500 random probes	–
NRC3_wobSeed102_DR4_T18G_o1 (dsDNA) DNA 1: GCCCTAGCAGGCCAATCGGGGTCACTCAAGGCTTGAGCGATTGACAGCGTAGAATGAAGG DNA 2: CCTTCATTCTACGCTGTCAATCGCTCAAGCCTTGAGTGACCCCGATTGGCCTGCTAGGGC	4.94 PBM z-score against 500 random probes	3.05 PBM z-score against 500 random probes	–
NRC3_wobSeed18_DR0_C13G_o1 (dsDNA) DNA 1: GCGATACAGGGTGAAGGCCAGAGTACGCGTATTGATGCGATTGACAGCGTAGAATGAAGG DNA 2: CCTTCATTCTACGCTGTCAATCGCATCAATACGCGTACTCTGGCCTTCACCCTGTATCGC	0.38 PBM z-score against 500 random probes	–	binding signal (RARg:RXRa): 0.44 PBM z-score against 500 random probes
NRC3_wobSeed88_DR3_C13T_o1 (dsDNA) DNA 1: GCTAGCCTAGGTTATGCGGGCCAGTATAGTGTCGGCGCGATTGACAGCGTAGAATGAAGG DNA 2: CCTTCATTCTACGCTGTCAATCGCGCCGACACTATACTGGCCCGCATAACCTAGGCTAGC	0.05 PBM z-score against 500 random probes	–	binding signal (PPARa:RXRa): 0.03 PBM z-score against 500 random probes
NRC3_random_hg19_288_o1 (dsDNA) DNA 1: GCCCTGGTTCAAGCGATTCTCCTGCCTCAGCCTCCTGCGATTGACAGCGTAGAATGAAGG DNA 2: CCTTCATTCTACGCTGTCAATCGCAGGAGGCTGAGGCAGGAGAATCGCTTGAACCAGGGC	0.5 PBM z-score against 500 random probes	–	–
NRC3_random_hg19_78_o1 (dsDNA) DNA 1: GCTATGACTGGTTACACTGGAAACCTAGAATGAACAGCGATTGACAGCGTAGAATGAAGG DNA 2: CCTTCATTCTACGCTGTCAATCGCTGTTCATTCTAGGTTTCCAGTGTAACCAGTCATAGC	0.42 PBM z-score against 500 random probes	–	–
NRC3_random_hg19_26_o1 (dsDNA) DNA 1: GCACTCAATACACCAAAGCACATCCTCATCAGACTCGCGATTGACAGCGTAGAATGAAGG DNA 2: CCTTCATTCTACGCTGTCAATCGCGAGTCTGATGAGGATGTGCTTTGGTGTATTGAGTGC	0.33 PBM z-score against 500 random probes	–	–
NRC3_random_hg19_285_o1 (dsDNA) DNA 1: GCTTACTCTGTTGCACTTTGGAAGAAACAAATGTAAGCGATTGACAGCGTAGAATGAAGG DNA 2: CCTTCATTCTACGCTGTCAATCGCTTACATTTGTTTCTTCCAAAGTGCAACAGAGTAAGC	0.3 PBM z-score against 500 random probes	0.15 PBM z-score against 500 random probes	–
NRC3_random_hg19_436_o1 (dsDNA) DNA 1: GCATAGTTTCCAGCTTCATCCATGTCTCTGCAAAGAGCGATTGACAGCGTAGAATGAAGG DNA 2: CCTTCATTCTACGCTGTCAATCGCTCTTTGCAGAGACATGGATGAAGCTGGAAACTATGC	0.27 PBM z-score against 500 random probes	–	binding signal (PPARa:RXRa): -0.03 PBM z-score against 500 random probes
NRC3_random_hg19_82_o1 (dsDNA) DNA 1: GCCATACAGACTCTAGTCATTTCAAATGTTCTTGCTGCGATTGACAGCGTAGAATGAAGG DNA 2: CCTTCATTCTACGCTGTCAATCGCAGCAAGAACATTTGAAATGACTAGAGTCTGTATGGC	0.12 PBM z-score against 500 random probes	–	–
NRC3_random_hg19_446_o1 (dsDNA) DNA 1: GCACTGAACAACCTGATCCTGAATGACTACAGGGTAGCGATTGACAGCGTAGAATGAAGG DNA 2: CCTTCATTCTACGCTGTCAATCGCTACCCTGTAGTCATTCAGGATCAGGTTGTTCAGTGC	0.09 PBM z-score against 500 random probes	–	–
NRC3_random_hg19_423_o1 (dsDNA) DNA 1: GCATCAAGTGATCCTCCCACCTCAGCCTTCCAAGTCGCGATTGACAGCGTAGAATGAAGG DNA 2: CCTTCATTCTACGCTGTCAATCGCGACTTGGAAGGCTGAGGTGGGAGGATCACTTGATGC	0.07 PBM z-score against 500 random probes	0.02 PBM z-score against 500 random probes	–
NRC3_random_hg19_8_o1 (dsDNA) DNA 1: GCGCTGAAACTGGATCCCTTCCTTACACCTTACACAGCGATTGACAGCGTAGAATGAAGG DNA 2: CCTTCATTCTACGCTGTCAATCGCTGTGTAAGGTGTAAGGAAGGGATCCAGTTTCAGCGC	-0.12 PBM z-score against 500 random probes	–	–
NRC3_random_hg19_98_o1 (dsDNA) DNA 1: GCGCCAGGCTGGTCTCGACCTCCTGACTTTGTGATCGCGATTGACAGCGTAGAATGAAGG DNA 2: CCTTCATTCTACGCTGTCAATCGCGATCACAAAGTCAGGAGGTCGAGACCAGCCTGGCGC	-0.14 PBM z-score against 500 random probes	–	–
NRC3_random_hg19_407_o1 (dsDNA) DNA 1: GCGAGACATGAGATTTGGTTCTAGCTACACTCTTCAGCGATTGACAGCGTAGAATGAAGG DNA 2: CCTTCATTCTACGCTGTCAATCGCTGAAGAGTGTAGCTAGAACCAAATCTCATGTCTCGC	-0.37 PBM z-score against 500 random probes	–	–
NRC3_random_hg19_242_o1 (dsDNA) DNA 1: GCCAGCAGAGAACCCAGTGGAACATGAGCCTATACAGCGATTGACAGCGTAGAATGAAGG DNA 2: CCTTCATTCTACGCTGTCAATCGCTGTATAGGCTCATGTTCCACTGGGTTCTCTGCTGGC	-0.39 PBM z-score against 500 random probes	–	–
NRC3_random_hg19_259_o1 (dsDNA) DNA 1: GCCCTGAGTCAGTAGAACCAGCTGAGAGATTGGATTGCGATTGACAGCGTAGAATGAAGG DNA 2: CCTTCATTCTACGCTGTCAATCGCAATCCAATCTCTCAGCTGGTTCTACTGACTCAGGGC	-0.45 PBM z-score against 500 random probes	–	–
NRC3_random_hg19_264_o1 (dsDNA) DNA 1: GCTCATCAGTCTAATGATGCTGTTGGTCCAGGGAGCGCGATTGACAGCGTAGAATGAAGG DNA 2: CCTTCATTCTACGCTGTCAATCGCGCTCCCTGGACCAACAGCATCATTAGACTGATGAGC	-0.53 PBM z-score against 500 random probes	–	–
NRC3_random_hg19_166_o1 (dsDNA) DNA 1: GCAATGACATGATCATAGCTCACTGCAGCCTTGAATGCGATTGACAGCGTAGAATGAAGG DNA 2: CCTTCATTCTACGCTGTCAATCGCATTCAAGGCTGCAGTGAGCTATGATCATGTCATTGC	-0.62 PBM z-score against 500 random probes	–	–
NRC3_random_hg19_74_o1 (dsDNA) DNA 1: GCAGAACAGCTGAGTGGCTCAAGACCGCAGAGGAACGCGATTGACAGCGTAGAATGAAGG DNA 2: CCTTCATTCTACGCTGTCAATCGCGTTCCTCTGCGGTCTTGAGCCACTCAGCTGTTCTGC	-0.75 PBM z-score against 500 random probes	-1.89 PBM z-score against 500 random probes	–
NRC3_random_hg19_48_o1 (dsDNA) DNA 1: GCTAGTCCAGCTGGCTGGAGACTCATGGAAGAACAGGCGATTGACAGCGTAGAATGAAGG DNA 2: CCTTCATTCTACGCTGTCAATCGCCTGTTCTTCCATGAGTCTCCAGCCAGCTGGACTAGC	-1.43 PBM z-score against 500 random probes	–	–
NRC3_random_hg19_121_o1 (dsDNA) DNA 1: GCGCAGTAGGCACAGGGACTGTGTACAGATCTACACGCGATTGACAGCGTAGAATGAAGG DNA 2: CCTTCATTCTACGCTGTCAATCGCGTGTAGATCTGTACACAGTCCCTGTGCCTACTGCGC	-2.89 PBM z-score against 500 random probes	-1.18 PBM z-score against 500 random probes	–
